According to the nanobody polyreactivity screen of Harvey et al. (2022):

Test: yeast display, Sf9 membrane polyspecificity reagent, FACS + sequencing; frameworks hold sequencing errors
Outline: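 Genes from sorted yeast were amplified by colony PCR, read by MiSeq 2 × 250 sequencing and filtered on CDR length. These cells carried a synthetic nanobody library in Saccharomyces cerevisiae BJ5465 and were sorted by FACS into low and high (top ~1%) gates on anti-HA and streptavidin fluorescence. Polyreactivity is labelled according to the gate of origin.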

| Sequence | polyreactivity (PSR sort gate) |
| --- | --- |
| QVQLVESGGGLVQAGGSLRLSCASSGGIFYRNAMGWYRQAPGKERELVAVITSSGGSTYYADSVKGRFTISRDNAKNTVYLQMNSLKPVDTAVYYCAAESVAAYYWGQGTQVTVSS | high polyreactivity |
| QVQLVESGGGLVQAGGSLRLSCASSGIILYYYAMGWYRQAPGKERELVAAIDSGDSTDYADSVKGRFTISRDNAKNTVYLQMNSLKPEDTAVYYCAADSPVDEYYHWGQGTQVTVSS | low polyreactivity |
| QVQLVESGGGLVQAGGSLRLSCASSGITFRYYAMGWYRQAPGKERELVAAISDGGSTNYADSVKGRFTISRDNAKNTVYLQMNSLKPEDTAVYYCAADYRYLFDYWGQGTQVTVSS | high polyreactivity |
| QVQLVESGGGLVQAGGSLRLSCASSGITLAGNAMGWYRQAPGKERELVAAISASGGRTSYADSVKGRFSISRDNAKNTVYLQKNSLKPEDTAVYYCNTRRYPTRPSYDYWGQGTQVTVSS | high polyreactivity |
| QVQLVESGGGLVQAGGSLRLSCASSGLTFYKNAMGWYRQAPGKERELVAVISSSGGSTYYADSVKGRFTISRDNAKNTVYLQMNSLKPEDTAVYYGGRDLYTEYRWGRLTYDYWGHGTQVTVSS | low polyreactivity |
| QVQLVESGGGLVQAGGSLRLSCASSGNTFERYAMGWYRQAPGKERELVAAITSSGGSTYYADSVKGRFTISRDNAKNTVYLQMNSLKPEDTAVYYCAASWRPRFYWGQGTQVTVSS | high polyreactivity |
| QVQLVESGGGLVQAGGSLRLSCASSGRIFSDYAMGWYRQAPGKEMEFVAAISSSGGRTYYADSVKGRFTISRDNAKNTFYLQMNSLKQEDTAVYYCNRYYGYYNTGRYGYWGQGTQVTVSS | high polyreactivity |
| QVQLVESGGGLVQAGGSLRLSCASSGRIFSVYTMGWYRQAPGKERELVAAISSGASTNYADSVKGRFTISRDNAMNTVYLQMKSLKPEDTAVYYCAAVSPRRYRYDYWGQGTQVTVSS | low polyreactivity |
| QVQLVESGGGLVQAGGSLRLSCASSGRILYLNAMGWYRQAPGKERELVAAITLRAGSTRYADSVKGRFTISRDNAKNTVYLQMNSLKPEDTAVYYCAVAYYRNRMDYWVQGTQVTVSS | high polyreactivity |
| QVQLVESGGGLVQAGGSLRLSCASSGRTFARNVMGWYRQAPGKERELVAAIRGSGGSTYYADSLKGRFTISRDNGKNTVYLQMNSLKTEDTAVYYCAADSSYTKRHSPTKLHFDYWGQGTQVTVSS | high polyreactivity |
| QVQLVESGGGLVQAGGSLRLSCASSGRTFAYNAMGRYRQAPGKERELVAAITSSGGSTYYADSVKGRFTISRDNAKNTVYLQMNSLKPEDTAVYYCASYVRPDYYAIHVDYWGQGTQVTVSS | low polyreactivity |
| QVQLVESGGGLVQAGGSLRLSCASSGRTFGFNVMGWYRQATGKERELVAAISWSGGSTYYADSVKGRFTISRDNAKNTVYLQMNILKPEDTAVYYCNAQYSQVNGYDYWGQGTQVTVSS | low polyreactivity |
| QVQLVESGGGLVQAGGSLRLSCASSGRTFRKYAMGWYRQAPGKERELVAGIDTSGGSTFYADSVKGRFTISRDNAKNTVYLQMNSLKPEDTAVYYCNADRHRINRPVILYYWGQGTLVTVSS | low polyreactivity |
| QVQLVESGGGLVQAGGSLRLSCASSGRTFRYNAMGWYIQAPGKESELVAAISRSGGRTYYADSVKGRFTISRDNAKNTVYLQMNSLKPEDTAVYYCAAYYYTAGDSSSRYDYWGQGTQVTVSS | high polyreactivity |
| QVQLVESGGGLVQAGGSLRLSCASSGRTFTRYAMGWYRQAPGKERELVAAITGGGTTNYADSVKGRFTISRDNAKNTVYLQINSLKPEDTAVYYCAADEQDVFAPGLYFWGQGTQVTVSS | low polyreactivity |
| QVQLVESGGGLVQAGGSLRLSCASSGRTFVWNAMGWYRQAPGKERELVAAIDWSGGSTYYADSVKGRFTISRDNAKNTVYLQMNSLKPEDTAVYYCAKEYWYRALWYNYWGQGTQVTVSS | high polyreactivity |
| QVQLVESGGGLVQAGGSLRLSCASSGRTFWYYAMGWYRQPPGKERELVAAITSGGSTNYADSVKGRFTISRDNAKNTVYLQMNSLKPEDTAVYYCATDNPVFEYDYWGQGTQVTVSS | low polyreactivity |
| QVQLVESGGGLVQAGGSLRLSCASSGRTFYPYAMGWYRQAPGKERDLDAAITWSGGSTYYADSVKGRFTISRDYAKITVYLQMNSLKPEDTAVYYCNATYEAYIYYEYDYWGQGTQVTVSS | low polyreactivity |
| QVQLVESGGGLVQAGGSLRLSCASSGRTFYRYAMGWYRQAPGKERELVASITRRGGSTYYADSVKGRFTISRDNAKNTVYLQMNSLKPEDTAVYYCAKHSWPLDGGDYWGQGTQVTVSS | low polyreactivity |
| QVQLVESGGGLVQAGGSLRLSCASSGRTIDGYAMGWYRQAPGKERELVATITWSGDSTYYADSVKGRFTISRDNAKNTVYLKMNSLKPEDTSVYYCAADSYYAYPYGYGYWGQGTQVTVSS | high polyreactivity |
| QVQLVESGGGLVQAGGSLRLSCASSGRTLPYNAMGWYRQAPGKERELVAAISKRGSSTYYADSVKGRFTLSRDNAKNTVYLQMNSLKPEDTAVYYCAKGGSFYYWGQGTQVTVSS | high polyreactivity |

| Sequence | polyreactivity (PSR sort gate) |
| --- | --- |
| QVQLVESGGGLVQAGGSLRLSCASSGRTYNVMGWYRQATGKERELVAAITWRGGSTHYADSVKGRFTISRDNAKNTVYLQMNSLKAEDTAVYYCSADLLYKSTRVDYWGQGTQVTVSS | low polyreactivity |
| QVQLVESGGGLVQAGGSLRLSCASSGSIFAGYAMGWYRQAPGKERELVATITSGGSTNYADSVKGRFTISRDNAKNTVYLQMNSLKPEDTAVYYCAADVEVSIPSSYTGGEYDYWGQGTQVTVSS | low polyreactivity |
| QVQLVESGGGLVQAGGSLRLSCASSGSIFRRNVMGWYRQAPGKERELVASITGRGGSTYYADSVKGRFTISRDNAKNTVYLQMNSLKPEDTAVYYSNADSLRTYDWYTRTVGYGYWVQGTQVTVSS | high polyreactivity |
| QVQLVESGGGLVQAGGSLRLSCASSGSIFSHYAMGWYRQAPGKERELVAAISRSGGSTYYADSVKGRFTISRDNAKNTVYLQMNSLKPEDTAVYYCAKEGDSGDWFDYWGQGTQVTVSS | low polyreactivity |
| QVQLVESGGGLVQAGGSLRLSCASSGSIFTCYTMGWYRQAPGKEMELVAAISQTGGRTYYADSVKVRFTISRDNAKNTVYLQMNSLKAEDTAVYYCAARSKRLAHDYWGQGTQVTVSS | high polyreactivity |
| QVQLVESGGGLVQAGGSLRLSCASSGSIFTINAMGWYRQAPGKERELVAAIPYSGGFTYYADSVKGRFTISRDNAKNTVYLQMNSLKPEDTAVYYCAAVRGYPSRITSYVYTYGYWGQGTQVTVSS | low polyreactivity |
| QVQLVESGGGLVQAGGSLRLSCASSGSIFTRYAMGWYRQAPGKERELVAAISRRGGSTYYADSVKGRFTISRDNAKNTVYIQMNSLKPEDTAVYYCYPYYIASTFDYWGQGTQVTVSS | high polyreactivity |
| QVQLVESGGGLVQAGGSLRLSCASSGSNFGYNAMGWYRQAPGKERELVAAILSSDSRTHYADSVKGRFTISRDNAKNTVYFQRNSLKPEDTAVYYCAAVKRRPGHYLYDYWGQGTQVSVSS | low polyreactivity |
| QVQLVESGGGLVQAGGSLRLSCASSGSTFHVNAMGWYRQAPGKERELVARISSTGRTSYADSVKGRFTISRDNAKNTVYLQMNSLKPEDTAVYYCAARYYRVYVSSDYYYWGQGTQVTVSS | high polyreactivity |
| QVQLVESGGGLVQAGGSLRLSCASSGSTFPYNAMGWYRQAPGKERELVAAITSSGRTNYADSVKGRFTISRDNAKNTVYLQMNSLKPEDTAVYYCAAGRWYAHRVDYWGQGTQVTVSS | low polyreactivity |
| QVQLVESGGGLVQAGGSLRLSCASSGSTFTTNALGWYRQAPGKERELVAAISRRGGSTYYADSVKGRFRISRDNAKNTVYLQMNSLKPEDTAVYYCNAVRAEYEFDYWGQGTQVTVSS | high polyreactivity |
| QVQLVESGGGLVQAGGSLRLSCASSGSTFWVNVMGWYRQAPGKERELVATITSGGRTNYADSVKGRFTISRDNAKNTVYLQMNCLKPEDTAVYYCAADLKRGYLMDYWGQGTQVTVSS | low polyreactivity |
| QVQLVESGGGLVQAGGSLRLSCASSGTFFGYAMGWYRQAPGKERELVAAITSGGSTYYADSVKGRFTISRDNAKNTVYLQMNSLKPEDTAGYYCARVYSRWSYRYDYWGQGTQVTVST | low polyreactivity |
| QVQLVESGGGLVQAGGSLRLSCASSGTFRLYAMGWYRQAPGKEREFVAAITSGGRTYADSVKGRFTISRDNAKNTVYLQMNSLKPEDTAVYYCAADAGRILFSGYDYWGQGTQVTVSS | low polyreactivity |
| QVQLVESGGGLVQAGGSLRLSCASSGYTIPLYAMVWYRQAPGKERELVADINIGGASTYYADSVKGRFTISRDNAKYTVYLQMNSLKPEDTAVYYCAKEYYDGYFTTFEYDYWGQGTQVTVSS | low polyreactivity |
| QVQLVESGGGLVQAGGSLRLSCATSGNIFWRYSIRWYRQAPGKEREFVAGISLRGSSTYYADSVKGRFTISRDNAKNTVYLEMNSLKPEDTAVYYCAVRQPRGSTVFYGGNYWGQGTQVTVSS | low polyreactivity |
| QVQLVESGGGLVQAGGSLRLSCATSGRIFHRYAMGWYRQAPGKERELVAGISSSGGSTYADSVKGRFTISRDNAKNTVYLQMNSLKPEDTAVYYCAKYFTDVSRHTYDYWGQGTQVTVSS | high polyreactivity |
| QVQLVESGGGLVQAGGSLRLSCATSGSIFVFNAMGWYRQAPGKERELVAAIDTSDDITYYADSVKGRFTISRDNAKNTVYLQMNSLKPEDTAVYYCNAETYGLVPYYIYHYEFDYWGQGTQVTVSS | high polyreactivity |
| QVQLVESGGGLVQAGGSLRLSCAVSGGILYEYAMGSDREAPGKERELVAAITTSGSTYYADSVKGRFTISRDNAKNTVDLLMNSLKPEDTAVYYCAADSDYFYYDLDYWGQGTQVTVSS | low polyreactivity |
| QVQLVESGGGLVQAGGSLRLSCAVSGRTFYYYAMGWYRQAPGKERELVAAISSSGGSTYYADSVKGRFTISRDNAMNTVYLQLNRLKPEDTAVYYCNAYTTRSYGFDYWGQGTQVTVSS | high polyreactivity |
